The record followed here is the Immune Epitope Database (IEDB).

Holding throughout (conditions): source organism: Homo sapiens
In experiment [1] the target is HLA-A*03:01. Description: IEDB peptide-MHC binding, purified MHC/competitive/radioactivity; filed as Kd, often an IC50 or EC50 that approximates it; ≥ and ≤ were set here for values at or beyond the usual limits of such assays.
In another experiment the target is HLA-A*11:01. The description is as above.
In experiment [2] the target is HLA-A*02:01. Described as above.
A further experiment deals with HLA-A*01:01. The experiment is described as above.
The target in experiment [3] is HLA-A*02:01. The experiment in a line: IEDB peptide-MHC binding, purified MHC/competitive/radioactivity; ≥ and ≤ were set here for values at or beyond the usual limits of such assays.
For experiment [4], the target named is HLA-A*03:01. The experiment is described as above.
A further experiment concerns the target HLA-A*24:02. The experiment in a line: IEDB peptide-MHC binding, purified MHC/competitive/radioactivity; filed as Kd, often an IC50 or EC50 that approximates it; ≥ and ≤ were set here for values at or beyond the usual limits of such assays.

A word on the Kd: it is the equilibrium constant for the complex coming apart. In the case of ADLVGFLLLK, the Kd with HLA-A*03:01 [1] turned out to be 31.4 nM; in the experiment with HLA-A*11:01, 20.3 nM. The like results for ALAETSYVK were, in that order, 35.5 nM and 16.4 nM. Turning to ALGLVCVQA, in the experiment with HLA-A*02:01 [2], the Kd came to 333 nM.

Turning to ALREEEEGV, the Kd with HLA-A*02:01 [2] came out at 238 nM.

For DLVGFLLLKY, in the experiment with HLA-A*03:01 [1], the Kd amounted to 1590 nM. In the case of ETSYVKVLEY, the Kd in the experiment with HLA-A*01:01 turned out to be 44.6 nM. With FLIIVLVMIA, the Kd with HLA-A*03:01 [1] stood at 1180 nM. Regarding FLWGPRALA, the Kd with HLA-A*02:01 [2] was 119 nM. As usually defined, the IC50 is the concentration that gives 50% inhibition. For the sequence GLLGDNQIM, the concentration for half-maximal inhibition (IC50) with HLA-A*02:01 [3] was 980 nM. Regarding GLVCVQAAT, the Kd in the experiment with HLA-A*02:01 [2] was determined as 2170 nM. With HSAYGEPRK, in the experiment with HLA-A*03:01 [4], the 50% inhibitory concentration (IC50) came out at 786 nM. As to IMPKTGFLI, the equilibrium dissociation constant (Kd) with HLA-A*24:02 was found to be 3.8 nM. In the experiment with HLA-A*02:01 [3], the concentration for half-maximal inhibition (IC50) was determined as 649 nM.

In the case of IMPKTGFLII, the Kd with HLA-A*24:02 turned out to be 34.3 nM; with HLA-A*02:01 [2] it was 1430 nM. Take KTGFLIIVLV: the Kd in the experiment with HLA-A*02:01 [2] came out at 4170 nM. For KVADLVGFL, the IC50 with HLA-A*02:01 [3] was 575 nM. As for KVADLVGFLL, in the experiment with HLA-A*02:01 [2], the Kd worked out at 89.3 nM. As for LFRAVITKK, the Kd in the experiment with HLA-A*03:01 [1] turned out to be 1000 nM.

Consider LIIVLVMIA, for which the dissociation constant Kd with HLA-A*03:01 [1] is at least 5000 nM. For LLGDNQIMP, the IC50 with HLA-A*03:01 [4] was 550 nM. For LLTQDLVQEK, the Kd with HLA-A*11:01 turned out to be 36.9 nM. Regarding LSVMEVYDGR, the Kd with HLA-A*11:01 amounted to 492 nM. Still for that read-out and setting: the result for LTQDLVQEK reads 15.5 nM. In the case of LTQDLVQEKY, the Kd in the experiment with HLA-A*01:01 was determined as 20.8 nM. Turning to LVGFLLLKY, in the experiment with HLA-A*03:01 [1], the Kd came to 196 nM. LVGFLLLKYR: the dissociation constant Kd in the experiment with HLA-A*03:01 [1] was determined as 3240 nM. In the case of LVLGTLEEV, the Kd in the experiment with HLA-A*02:01 [2] turned out to be 156 nM.

Take LVQEKYLEY: in the experiment with HLA-A*11:01, the dissociation constant Kd was found to be 111 nM. Take MLESVIKNY: the Kd in the experiment with HLA-A*01:01 came to 2270 nM. On to MLESVIKNYK, for which the dissociation constant (Kd) with HLA-A*03:01 [1] was determined as 78.6 nM; in the experiment with HLA-A*11:01, 218 nM. Consider MSLEQRSLH, for which the Kd with HLA-A*03:01 [1] worked out at 3550 nM.

Regarding NYKHCFPEI, in the experiment with HLA-A*24:02, the Kd is 2.5 nM. As to RALAETSYV, the IC50 with HLA-A*02:01 [3] came out at 500 nM. For RALAETSYVK, the Kd with HLA-A*03:01 [1] stood at 61.1 nM; with HLA-A*11:01, 24.6 nM. With RVRFFFPSLR, the Kd with HLA-A*03:01 [1] amounted to 25.6 nM. For SLEQRSLHCK, in the experiment with HLA-A*11:01, the Kd was 393 nM. Moreover, in the experiment with HLA-A*03:01 [4], the IC50 stood at 733 nM. With SLFRAVITKK, the dissociation constant Kd stood at 9.2 nM in the experiment with HLA-A*03:01 [1] and 6 nM with HLA-A*11:01. In the case of SLHCKPEEA, the dissociation constant Kd in the experiment with HLA-A*02:01 [2] worked out at 385 nM. In the case of SLQLVFGIDV, the Kd with HLA-A*02:01 [2] came to 2500 nM. On to SVMEVYDGR, for which the Kd is 1180 nM in the experiment with HLA-A*03:01 [1] and 4.5 nM in the experiment with HLA-A*11:01. Take SYVKVLEYVI: the Kd with HLA-A*24:02 came out at 333 nM. For the sequence TSCILESLFR, the dissociation constant Kd in the experiment with HLA-A*11:01 is 393 nM. In the case of TTINFTRQR, the Kd in the experiment with HLA-A*11:01 stood at 5.9 nM. Also, the IC50 in the experiment with HLA-A*03:01 [4] worked out at 688 nM. As for VADLVGFLL, the Kd in the experiment with HLA-A*02:01 [2] is 2500 nM. Turning to VGFLLLKYR, in the experiment with HLA-A*03:01 [1], the dissociation constant (Kd) was found to be 2500 nM. Regarding VMIAMEGGHA, the Kd with HLA-A*02:01 [2] turned out to be 139 nM. Take YVIKVSARV: the Kd with HLA-A*02:01 [2] amounted to 357 nM.

In the case of YVIKVSARVR, the IC50 with HLA-A*03:01 [4] was found to be 579 nM. For the sequence YVKVLEYVIK, in the experiment with HLA-A*03:01 [1], the Kd is 3790 nM.

With YVLVTCLGL, the Kd with HLA-A*02:01 [2] came to 2170 nM.
